Measured values as given in the supplement of paper PMC7125110.
± gives the standard error. For some assays here: Variants at the floor of the assay were thinned out.

B1: glmS ribozyme (parent)
chain: AUAAAAGCGCCAGAACUACAGAAAUGUAGUUGACGAGGAGGAGGUUUAUCGAAUUUUCGGCGGAUGCCUCCAAA

Legend:
Conditions in all cases: with glucosamine-6-phosphate
glucosamine-6-phosphate [1] = variants of: B1; assay: kcat; higher = faster cleavage; RNA array
Summary of the method: (§1)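 kcat and KM were obtained from weighted Michaelis–Menten fits across concentrations of kobs values. Those came from one- or two-exponential decay fits to per-tile medians normalised to baseline and to non-cleaving reference variants. The variants were barcoded ribozymes transcribed in situ by E. coli RNA polymerase on sequenced MiSeq chips and tracked through a hybridised Cy3 probe at 37 °C, with 40 μM to 10 mM glucosamine-6-phosphate in HEPES/KCl/Mg(OAc)2 buffer flowed in.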

glucosamine-6-phosphate [2] = variants of: B1; assay: self-cleavage kobs at 10000 uM GlcN6P; higher = faster cleavage; RNA array
Summary of the method: as §1

glucosamine-6-phosphate [3] = variants of: B1; assay: self-cleavage kobs at 640 uM GlcN6P; higher = faster cleavage; RNA array
Summary of the method: as §1

glucosamine-6-phosphate [4] = variants of: B1; assay: self-cleavage kobs at 2500 uM GlcN6P; higher = faster cleavage; RNA array
Summary of the method: as §1

glucosamine-6-phosphate [5] = variants of: B1; assay: KM; higher = weaker cofactor use; RNA array
Summary of the method: as §1

glucosamine-6-phosphate [6] = variants of: B1; assay: self-cleavage kobs at 40 uM GlcN6P; higher = faster cleavage; RNA array
Summary of the method: as §1

glucosamine-6-phosphate [7] = variants of: B1; assay: self-cleavage kobs at 160 uM GlcN6P; higher = faster cleavage; RNA array
Summary of the method: as §1

Row | Variant | kcat (glucosamine-6-phosphate [1]) | self-cleavage kobs at 10000 uM GlcN6P (glucosamine-6-phosphate [2]) | self-cleavage kobs at 640 uM GlcN6P (glucosamine-6-phosphate [3]) | self-cleavage kobs at 2500 uM GlcN6P (glucosamine-6-phosphate [4]) | KM (glucosamine-6-phosphate [5]) | self-cleavage kobs at 40 uM GlcN6P (glucosamine-6-phosphate [6]) | self-cleavage kobs at 160 uM GlcN6P (glucosamine-6-phosphate [7])
1 | U57C C58G | 3.57e-05 ± 4.2e-06 s⁻¹ | 3.19e-05 ± 1e-05 s⁻¹ | – | – | – | – | –
2 | U57A C67U | 0.000139 ± 3.1e-05 s⁻¹ | 0.000108 ± 1e-05 s⁻¹ | 5.03e-05 ± 1.7e-05 s⁻¹ | 5.36e-05 ± 9.6e-06 s⁻¹ | – | – | –
3 | U47C C68U | 0.00114 ± 0.0002 s⁻¹ | 0.00107 ± 0.00015 s⁻¹ | 0.000286 ± 4.6e-05 s⁻¹ | 0.000609 ± 0.0001 s⁻¹ | 1650 ± 540 µM | 3.33e-05 ± 1.2e-05 s⁻¹ | 0.000149 ± 3.6e-05 s⁻¹
4 | G37A G44U A53U | 9.52e-05 ± 3e-05 s⁻¹ | 7.31e-05 ± 2.3e-05 s⁻¹ | – | 6.43e-05 ± 1.9e-05 s⁻¹ | – | – | –
5 | A52C G66C | 1.28e-05 ± 2.9e-06 s⁻¹ | – | < 1e-05 s⁻¹ | – | – | < 1e-05 s⁻¹ | –
6 | A36C C70U | < 1e-05 s⁻¹ | – | – | – | – | < 1e-05 s⁻¹ | –
7 | C10G G62U | < 1e-05 s⁻¹ | – | – | – | – | < 1e-05 s⁻¹ | –
8 | C11U A14C C70U | 0.000322 ± 0.00016 s⁻¹ | 0.000224 ± 6.8e-05 s⁻¹ | 0.000221 ± 4.6e-05 s⁻¹ | 0.000599 ± 0.00016 s⁻¹ | – | – | –
9 | G13U C71U | 0.00114 ± 0.00015 s⁻¹ | 0.000946 ± 9.8e-05 s⁻¹ | 0.000229 ± 3.7e-05 s⁻¹ | 0.000673 ± 8.2e-05 s⁻¹ | 2020 ± 470 µM | 2.24e-05 ± 7.7e-06 s⁻¹ | 0.000105 ± 1.7e-05 s⁻¹
10 | U31C A52G C67U | 0.000208 ± 9.4e-05 s⁻¹ | 0.000147 ± 2.6e-05 s⁻¹ | 9.07e-05 ± 3.5e-05 s⁻¹ | 6.61e-05 ± 1.4e-05 s⁻¹ | – | – | –
11 | U54G C58U C67U | 4.43e-05 ± 9.6e-06 s⁻¹ | 3.78e-05 ± 1.2e-05 s⁻¹ | – | 5.48e-05 ± 1.7e-05 s⁻¹ | – | – | –
12 | U56A A64G | 0.0109 ± 0.0032 s⁻¹ | 0.0123 ± 0.0025 s⁻¹ | 0.0025 ± 0.00037 s⁻¹ | 0.00654 ± 0.00084 s⁻¹ | 1640 ± 680 µM | 0.00036 ± 5.4e-05 s⁻¹ | 0.000983 ± 0.00014 s⁻¹
13 | C11U C68U | 0.000418 ± 5.2e-05 s⁻¹ | 0.00036 ± 3.9e-05 s⁻¹ | 0.000135 ± 1.7e-05 s⁻¹ | 0.000329 ± 3.1e-05 s⁻¹ | 1070 ± 290 µM | – | 6.59e-05 ± 1.1e-05 s⁻¹
14 | A12C U56A | 0.0197 ± 0.004 s⁻¹ | 0.0135 ± 0.0011 s⁻¹ | 0.00217 ± 0.00031 s⁻¹ | 0.0059 ± 0.00083 s⁻¹ | 4980 ± 1400 µM | 0.00021 ± 2.5e-05 s⁻¹ | 0.000528 ± 7.5e-05 s⁻¹
15 | A15C C16A G62U | < 1e-05 s⁻¹ | – | – | – | – | < 1e-05 s⁻¹ | –
16 | G29C A52U | 5.44e-05 ± 2.8e-06 s⁻¹ | 4.6e-05 ± 1e-05 s⁻¹ | – | 3.25e-05 ± 1.4e-05 s⁻¹ | 1790 ± 390 µM | < 1e-05 s⁻¹ | –

Row | Variant | kcat (glucosamine-6-phosphate [1]) | self-cleavage kobs at 10000 uM GlcN6P (glucosamine-6-phosphate [2]) | self-cleavage kobs at 640 uM GlcN6P (glucosamine-6-phosphate [3]) | self-cleavage kobs at 2500 uM GlcN6P (glucosamine-6-phosphate [4]) | KM (glucosamine-6-phosphate [5]) | self-cleavage kobs at 40 uM GlcN6P (glucosamine-6-phosphate [6]) | self-cleavage kobs at 160 uM GlcN6P (glucosamine-6-phosphate [7])
17 | A12U A48U C70A | 5.26e-05 ± 1.7e-05 s⁻¹ | 4.16e-05 ± 1.5e-05 s⁻¹ | – | 6.36e-05 ± 2e-05 s⁻¹ | – | – | –
18 | G29U U46G | 0.00127 ± 0.00012 s⁻¹ | 0.00106 ± 0.00013 s⁻¹ | 0.000259 ± 5e-05 s⁻¹ | 0.000689 ± 0.00011 s⁻¹ | 2110 ± 340 µM | 3.07e-05 ± 9.8e-06 s⁻¹ | 9.52e-05 ± 2e-05 s⁻¹
19 | G62C C70A | 1.23e-05 ± 3.2e-06 s⁻¹ | – | – | – | – | – | –
20 | A53G U65G | 0.00217 ± 0.00093 s⁻¹ | – | 0.000884 ± 0.00018 s⁻¹ | 0.00134 ± 0.00033 s⁻¹ | – | 9.01e-05 ± 2.5e-05 s⁻¹ | 0.000202 ± 4e-05 s⁻¹
21 | G41U A52U | 0.000103 ± 1e-05 s⁻¹ | 8.78e-05 ± 1.2e-05 s⁻¹ | – | 7.47e-05 ± 1.3e-05 s⁻¹ | 1340 ± 510 µM | – | –
22 | A12G U65G C67A | 0.000136 ± 1.4e-05 s⁻¹ | 0.000108 ± 3.2e-05 s⁻¹ | – | 6.02e-05 ± 1.2e-05 s⁻¹ | 3010 ± 610 µM | – | –
23 | C70U C71U | 0.00193 ± 0.00073 s⁻¹ | 0.00146 ± 0.00021 s⁻¹ | 0.000229 ± 1.8e-05 s⁻¹ | 0.000753 ± 0.00013 s⁻¹ | 4150 ± 1900 µM | 3.19e-05 ± 5.6e-06 s⁻¹ | 8.1e-05 ± 8.1e-06 s⁻¹
24 | A36C U55C | < 1e-05 s⁻¹ | < 1e-05 s⁻¹ | – | – | – | – | –
25 | U47C A53C | 0.00196 ± 0.00041 s⁻¹ | 0.00173 ± 0.00032 s⁻¹ | 0.000497 ± 0.00012 s⁻¹ | 0.00163 ± 0.00044 s⁻¹ | 1380 ± 440 µM | 6.18e-05 ± 1.1e-05 s⁻¹ | –
26 | U45G A53C | 0.00249 ± 0.00031 s⁻¹ | 0.00197 ± 0.00021 s⁻¹ | 0.000627 ± 0.00012 s⁻¹ | 0.00179 ± 0.00022 s⁻¹ | 1820 ± 370 µM | 5.63e-05 ± 8.5e-06 s⁻¹ | 0.000176 ± 3.1e-05 s⁻¹
27 | U49A U69G | 5.15e-05 ± 2.2e-05 s⁻¹ | – | 4.76e-05 ± 1.8e-05 s⁻¹ | 8.54e-05 ± 1.8e-05 s⁻¹ | – | – | –
28 | G43A U45G | 0.0116 ± 0.0056 s⁻¹ | 0.00965 ± 0.0026 s⁻¹ | 0.00306 ± 0.00054 s⁻¹ | 0.00969 ± 0.0023 s⁻¹ | – | 0.000563 ± 0.0001 s⁻¹ | 0.000816 ± 0.00022 s⁻¹
29 | G41A G66A | 0.0028 ± 0.0014 s⁻¹ | 0.0028 ± 0.00037 s⁻¹ | 0.000562 ± 8.6e-05 s⁻¹ | 0.000832 ± 0.00018 s⁻¹ | – | 6.67e-05 ± 1.2e-05 s⁻¹ | 0.000116 ± 3.7e-05 s⁻¹
30 | U46G A52G | 0.00059 ± 3.1e-05 s⁻¹ | 0.00036 ± 4.6e-05 s⁻¹ | 5.26e-05 ± 1.6e-05 s⁻¹ | 0.000185 ± 9.1e-05 s⁻¹ | 6370 ± 650 µM | – | –
31 | U31C C58A | 0.000146 ± 6.8e-06 s⁻¹ | 0.00013 ± 1.5e-05 s⁻¹ | 5.08e-05 ± 1.5e-05 s⁻¹ | 8.99e-05 ± 1.5e-05 s⁻¹ | 1390 ± 210 µM | – | –
32 | C16U U65A | 0.00359 ± 0.00068 s⁻¹ | 0.00276 ± 0.00049 s⁻¹ | 0.000817 ± 0.00011 s⁻¹ | 0.00193 ± 0.00025 s⁻¹ | 2370 ± 610 µM | 7.34e-05 ± 1.2e-05 s⁻¹ | 0.000189 ± 2.9e-05 s⁻¹
